Experimental data as given in patent US20050118615A1 (COMPUGEN, published 2005).

Tests used:
[1] = target: T1, recombinant human BMP-4 (R&D Systems) (human, UniProt P12644 293-408); experiment: pull-down on Talon metal affinity resin with immobilised His-hCHL2, immunoblot with anti-BMP2/4 antibody
T1 construct: Bought reagent
T1 sequence (looked up): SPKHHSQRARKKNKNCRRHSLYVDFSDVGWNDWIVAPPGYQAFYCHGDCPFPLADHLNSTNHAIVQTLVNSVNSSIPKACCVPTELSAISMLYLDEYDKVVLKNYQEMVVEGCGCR
From the text: (§1) Protein binding assays with His-tagged hCHL2 protein Culture media of COS7 cells, transfected with hCHL2 cloned in pcDNA4/His, or empty vector (see above), were collected every 24 hrs, beginning at 48 hrs after transfection for a total of 96 hrs, and concentrated 10-fold by ultrafiltration through a YM Millipore membrane under nitrogen pressure (Millipore, Bedford, Mass.) before binding of secreted His-tagged hCHL2 to BD TALONTM Metal Affinity Resin (Clontech, Palo Alto, Calif.). The resin was added to the concentrated medium, rotated for 30 min at room temperature, and then washed twice with loading buffer (50 mM NaH₂PO₄, pH 8, 300 mM NaCl, 5 mM imidazole) and resuspended in 200 μl of binding buffer (1 mM CaCl₂, 3 mM MgCl₂, 0.2% NP-40, 1 mg/ml BSA in PBS). The His-hCHL2, immobilized on the resin, was incubated with 200 ng of recombinant human BMP-2, -4, -6 or Activin A (all purchased from R&D Systems), while rotating for 1 hr at room temperature, and then washed once with binding buffer and twice with binding buffer supplemented with 0.2% Tween. […]
(§2) COS-7 cells were transfected with a pcDNA4 (Invitrogen, Carlsbad, Calif.) vector expressing His-tagged hCHL2 (coding region corresponding to variant II, SEQ ID NO:6), and the culture media were collected for 72 hrs. […] No interaction was detected with any of the other proteins tested (BMP-2, 4, or 6).

[2] = target: T2, recombinant human BMP-2 (R&D Systems) (human, UniProt P12643 283-396); experiment: as above
T2 construct: Bought reagent
From the text: as §1, §2

[3] = target: T3, recombinant human BMP-6 (R&D Systems) (human, UniProt P22004 382-513, limits assumed); experiment: pull-down on Talon metal affinity resin with immobilised His-hCHL2, immunoblot with anti-BMP-6 antibody
T3 construct: Bought reagent
T3 sequence (looked up): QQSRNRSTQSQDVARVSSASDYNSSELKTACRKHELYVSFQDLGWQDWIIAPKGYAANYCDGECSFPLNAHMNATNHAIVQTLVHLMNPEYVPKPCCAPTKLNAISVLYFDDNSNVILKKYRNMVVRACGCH
From the text: as §1, §2

Measured: binding result

T2 sequence (P12643 283-396 limits assumed): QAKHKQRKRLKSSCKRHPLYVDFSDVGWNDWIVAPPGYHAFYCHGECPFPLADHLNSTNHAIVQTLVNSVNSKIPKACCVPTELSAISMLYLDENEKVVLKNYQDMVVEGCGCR

B1: His-tagged hCHL2 (variant II), secreted from COS-7 cells transfected with pcDNA4/myc-His-hCHL2 (other, not shown: small tags and cut ends)
chain: RARPDMFCLFHGKRYSPGESWHPYLEPQGLMYCLRCTCSEGAHVSCYRLHCPPVHCPQPVTEPQQCCPKCVEPHTPSGLRAPPKSCQHNGTMYQHGEIFSAHELFPSRLPNQCVLCSCTEGQIYCGLTTCPEPGCPAPLPLPDSCCQACKDEASEQSDEEDRVQSLHGVRHPQDPCSSDAGRKRGPGTPAPTGLSAPLSFIPRHFIPKGAGSTTVKIVLKEKHKKACVHGGKTYSHGEVWHPAFRAFGPLPCILCTCEDGRQDCQRVTCPTEYPCRHPEKVAGKCCKICPEDKADPGHSEISSTRCPKAPGRVLVHTSVSPSPDNLRRFALEHEASDLVEIYLWKLVKDEETEAQRGEVPGPRPHSQNLPLDSDQESQEARLPERGTALPTARWPPRRSLERLPSPDPGAEGHGQSRQSDQDITKT
notes: also called His-tagged hCHL2 protein
no binding (tested: 200 ng): all assays above
